# Experimental data from IntAct's records for PubMed 23624502.
# B1: Ras-related protein Rab-39B (Mus musculus), Q8BHC1 (parent)
# chain: MEAIWLYQFRLIVIGDSTVGKSCLIRRFTEGRFAQVSDPTVGVDFFSRLVEIEPGKRIKLQIWDTAGQERFRSITRAYYRNSVGGLLLFDITNRRSFQNVHEWLEETKVHVQPYQIVFVLVGHKCDLDTQRQVTRHEAEKLAAAYGMKYIETSARDAINVEKAFTDLTRDIYELVKRGEITIQEGWEGVKSGFVPNVVHSSEEVIKSERRCLC
# partner: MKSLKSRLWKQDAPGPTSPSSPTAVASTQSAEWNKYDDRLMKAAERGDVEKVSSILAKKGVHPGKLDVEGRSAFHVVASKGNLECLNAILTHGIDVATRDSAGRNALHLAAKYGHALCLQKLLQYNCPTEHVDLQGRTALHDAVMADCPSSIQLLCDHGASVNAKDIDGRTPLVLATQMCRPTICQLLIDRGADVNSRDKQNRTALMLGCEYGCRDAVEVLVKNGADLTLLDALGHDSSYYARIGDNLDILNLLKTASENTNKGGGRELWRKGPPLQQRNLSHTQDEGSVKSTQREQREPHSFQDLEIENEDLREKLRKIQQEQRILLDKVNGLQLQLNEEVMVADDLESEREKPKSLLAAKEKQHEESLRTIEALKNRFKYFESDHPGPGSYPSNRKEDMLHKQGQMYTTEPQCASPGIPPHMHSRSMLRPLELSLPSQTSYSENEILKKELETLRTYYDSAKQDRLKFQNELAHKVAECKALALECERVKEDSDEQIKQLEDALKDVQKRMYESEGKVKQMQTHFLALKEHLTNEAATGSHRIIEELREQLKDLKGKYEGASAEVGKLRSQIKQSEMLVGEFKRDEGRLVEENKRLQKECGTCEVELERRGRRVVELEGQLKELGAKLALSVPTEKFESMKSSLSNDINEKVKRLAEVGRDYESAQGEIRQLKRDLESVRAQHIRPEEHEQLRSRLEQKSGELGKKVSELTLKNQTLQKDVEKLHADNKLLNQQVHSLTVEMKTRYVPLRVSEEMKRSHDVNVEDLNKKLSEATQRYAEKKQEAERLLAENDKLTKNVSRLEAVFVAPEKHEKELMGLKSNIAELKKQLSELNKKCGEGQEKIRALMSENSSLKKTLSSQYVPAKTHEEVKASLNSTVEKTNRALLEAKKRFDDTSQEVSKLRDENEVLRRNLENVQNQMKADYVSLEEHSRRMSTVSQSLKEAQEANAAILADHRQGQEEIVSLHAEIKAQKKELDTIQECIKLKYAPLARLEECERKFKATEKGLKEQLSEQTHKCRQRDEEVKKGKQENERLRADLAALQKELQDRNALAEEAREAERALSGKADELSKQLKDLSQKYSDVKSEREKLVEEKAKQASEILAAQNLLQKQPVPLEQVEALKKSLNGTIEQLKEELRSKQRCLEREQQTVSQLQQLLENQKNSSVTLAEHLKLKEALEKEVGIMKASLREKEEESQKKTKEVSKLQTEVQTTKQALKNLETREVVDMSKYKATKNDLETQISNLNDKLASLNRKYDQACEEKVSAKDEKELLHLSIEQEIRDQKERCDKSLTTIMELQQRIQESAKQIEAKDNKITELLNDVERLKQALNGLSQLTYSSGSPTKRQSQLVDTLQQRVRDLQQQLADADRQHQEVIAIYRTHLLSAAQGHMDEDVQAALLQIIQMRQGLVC
# B2: Ras-related protein Rab-39A (Mus musculus), Q8BHD0 (parent)
# chain: METIWIYQFRLIVIGDSTVGKSCLLHRFTQGRFPGLHSPACDPTVGVDFFSRLLEIEPGKRIKLQLWDTAGQERFRSITRSYYRNSVGGFLVFDITNRRSFEHVKDWLEEAKMHVQPFQIVFLLVGHKCDLASQRQVSREEAERLSTDCGMKYIETSAKDATNVEESFTILTRDIYELIKKGEICIQDGWEGVKSGFVPNTVHSSEEAVKPRKECFC
# partner: B1 partner
# Key:
# Settings in all cases: with Uaca
# Uaca, Q8CGB3-3 [1] = variants of: B1
# Uaca, Q8CGB3-3 [2] = variants of: B1; remark: listed apart in the source
# Uaca, Q8CGB3-3 [3] = variants of: B2; remark: listed apart in the source
# Uaca, Q8CGB3-3 [4] = variants of: B2; remark: listed apart in the source
"effect of a mutation on the interaction (Uaca, Q8CGB3-3 [1])","effect of a mutation on the interaction (Uaca, Q8CGB3-3 [2])","effect of a mutation on the interaction (Uaca, Q8CGB3-3 [3])","effect of a mutation on the interaction (Uaca, Q8CGB3-3 [4])",Variant
disrupting interaction,decreasing interaction,–,–,S22N
–,–,disrupting interaction,decreasing interaction,S22N
